Target: APP695-derived polypeptide (SEQ.ID.NO.: 28) having the modified sequence NLDV (SEQ.ID.NO.: 7) (human) (UniProt P05067)
Assay: cell-based or functional assay

## β-secretase (of the HEK293T cells in which the APP β-site mutants were expressed) (from UniProt P56817 46-501) (enzyme)
  production of Aβ in the HEK293T cells (times the level of wild type APP695): 3

Source: patent publication US20030200555A1
